The text below walks through data of article PMC2910045 (Nucleic Acids Research, 2010).

Read-outs that look alike come from different tables or passages of the source.

Data set [1] addresses T1, SopB FL (Escherichia coli F plasmid, UniProt P62558 1-323).
T1 sequence: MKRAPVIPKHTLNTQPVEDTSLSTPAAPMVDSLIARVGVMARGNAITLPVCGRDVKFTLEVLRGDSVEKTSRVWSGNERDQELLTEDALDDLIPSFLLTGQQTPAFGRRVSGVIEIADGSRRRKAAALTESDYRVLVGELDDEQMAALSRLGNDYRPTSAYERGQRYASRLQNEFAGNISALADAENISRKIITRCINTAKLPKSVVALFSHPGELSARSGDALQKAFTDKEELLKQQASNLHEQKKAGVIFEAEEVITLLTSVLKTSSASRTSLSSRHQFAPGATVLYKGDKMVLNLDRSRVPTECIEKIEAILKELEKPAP
The data set can be described thus: fluorescence polarization. Background: In fluorescence polarisation assays a small probe gives low polarisation when free and higher when bound to something large.

Data set [2] deals with the molecule itself. The data set can be described thus: SEC. (In general: SEC sorts molecules by how far they enter the pores of the column.)
Data set [3] concerns the molecule itself. The data set can be described thus: SEC. This is another data set of the same source.
The next data set concerns the target T2, SopB(155-323) (Escherichia coli F plasmid, UniProt P62558 155-323).
T2 sequence: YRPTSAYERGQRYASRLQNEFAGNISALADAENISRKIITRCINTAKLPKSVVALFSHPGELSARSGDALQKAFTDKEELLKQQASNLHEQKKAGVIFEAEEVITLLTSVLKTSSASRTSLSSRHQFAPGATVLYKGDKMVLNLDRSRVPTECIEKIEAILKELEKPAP
The data set can be described thus: X-ray crystallography.

Data set [4] concerns the target T1, SopB FL. The data set can be described thus: X-ray crystallography.

B1: sopC 43mer (FP) (dsDNA)
DNA 1: GGTCTGATTATTAGTCTGGGACCACGGTCCCACTCGTATCGTC
DNA 2: GACGATACGAGTGGGACCGTGGTCCCAGACTAATAATCAGACC
For the molecule B1, binding with SopB FL [1] was put at a Kd of 324 ± 43 nM.

B2: SopB(155–272) (domain or fragment, F plasmid, UniProt P62558 155-272, looked up)
chain: YRPTSAYERGQRYASRLQNEFAGNISALADAENISRKIITRCINTAKLPKSVVALFSHPGELSARSGDALQKAFTDKEELLKQQASNLHEQKKAGVIFEAEEVITLLTSVLKTSSASR
For the molecule B2, the “stoichiometry N” value in the data set “SEC [2]” is 2.

B3: SopB(275–323) (domain or fragment, F plasmid, UniProt P62558 275-323, looked up)
chain: LSSRHQFAPGATVLYKGDKMVLNLDRSRVPTECIEKIEAILKELEKPAP
Consider B3, for which the “stoichiometry N” value in “SEC [3]” was 2.

B4: sopC 18mer (FP) (dsDNA)
DNA 1: CTGGGACCATGGTCCCAG
DNA 2: CTGGGACCATGGTCCCAG
Molecule B4 gave a Kd with SopB FL [1] of 223 ± 44 nM.

B5: sopC 18mer 5-bromouracil (dsDNA)
DNA 1: CTGGGACCATGGTCCCAG
DNA 2: CTGGGACCATGGTCCCAG
modifications: 5-bromouracil substitutions (positions not given)
For B5, the binding result with SopB(155-323) and with SopB FL [4] was “binds” in each case.

Broadly, the Kd is a measure of binding affinity in units of concentration. A lower Kd goes with tighter binding. Usually stoichiometry N stands for a count of units in the complex or per binding partner.
